Results as given in publication PMC7378325.

Molecular target: GFP-GABAB1b
Experiment: FRET or BRET; two-photon FLIM; GFP donor, t-dimer DsRed acceptor; transfected rat spinal neurons in culture, fixed; treated with baclofen (10^-9 to 10^-3 M) or GABA (10^-4 M), with exogenous fibulin-2 protein (25 or 50 nM), co-transfected fibulin-2 or anti-fibulin-2 siRNA; mean FRET efficiency ± …

FRET efficiency (baclofen 10^-6 M): 51.2%
FRET efficiency (baclofen 10^-6 M, fibulin-2 co-transfected): 53%
B1: DsRed-GABAB2 (receptor)
chain: WTRGAPRPPPSSPPLSIMGLMPLTKEVAKGSIGRGVLPAVELAIEQIRNESLLRPYFLDLRLYDTECDNAKGLKAFYDAIKYGPNHLMVFGGVCPSVTSIIAESLQGWNLVQLSFAATTPVLADKKKYPYFFRTVPSDNAVNPAILKLLKHFRWRRVGTLTQDVQRFSEVRNDLTGVLYGEDIEISDTESFSNDPCTSVKKLKGNDVRIILGQFDQNMAAKVFCCAFEESMFGSKYQWIIPGWYEPAWWEQVHVEANSSRCLRRSLLAAMEGYIGVDFEPLSSKQIKTISGKTPQQFEREYNSKRSGVGPSKFHGYAYDGIWVIAKTLQRAMETLHASSRHQRIQDFNYTDHTLGKIILNAMNETNFFGVTGQVVFRNGERMGTIKFTQFQDSREVKVGEYNAVADTLEIINDTIRFQGSEPPKDKTIILEQLRKISLPLYSILSALTILGMIMASAFLFFNIKNRNQKLIKMSSPYMNNLIILGGMLSYASIFLFGLDGSFVSEKTFETLCTVRTWILTVGYTTAFGAMFAKTWRVHAIFKNVKMKKKIIKDQKLLVIVGGMLLIDLCILICWQAVDPLRRTVERYSMEPDPAGRDISIRPLLEHCENTHMTIWLGIVYAYKGLLMLFGCFLAWETRNVSIPALNDSKYIGMSVYNVGIMCIIGAAVSFLTRDQPNVQFCIVALVIIFCSTITLCLVFVPKLITLRTNPDAATQNRRFQFTQNQKKEDSKTSTSVTSVNQASTSRLEGLQSENHRLRMKITELDKDLEEVTMQLQDTPEKTTYIKQNHYQELNDILSLGNFTESTDGGKAILKNHLDQNPQLQWNTTEPSRTCKDPIEDINSPEHIQRRLSLQLPILHHAYLPSIGGVDASCVSPCVSPTASPRHRHVPPSFRVMVSGL
